Source: US20020052473

T1: full-length pro-IL-1H4
T1 chain: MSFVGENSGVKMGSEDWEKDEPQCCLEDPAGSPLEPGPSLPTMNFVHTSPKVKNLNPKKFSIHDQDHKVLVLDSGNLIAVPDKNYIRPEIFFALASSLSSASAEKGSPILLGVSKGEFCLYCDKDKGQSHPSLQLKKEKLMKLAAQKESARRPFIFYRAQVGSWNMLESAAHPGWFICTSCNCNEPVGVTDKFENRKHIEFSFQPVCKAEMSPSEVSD

B1: caspase 1 (protein)
chain: NPAMPTSSGSEGNVKLCSLEEAQRIWKQKSAEIYPIMDKSSRTRLALIICNEEFDSIPRRTGAEVDITGMTMLLQNLGYSVDVKKNLTASDMTTELEAFAHRPEHKTSDSTFLVFMSHGIREGICGKKHSEQVPDILQLNAIFNMLNTKNCPSLKDKPKVIIIQACRGDSPGVVWFKDSVGVSGNLSLPTTEEFEDDAIKKAHIEKDFIAFCSSTPDNVSWRHPTMGSVFIGRLIEHMQEYACSCDVEEIFRKVRFSFEQPDGRAQMPTTERVTLTRCFYLFPGH
B2: caspase 4 (protein)
chain: QISPNKKAHPNMEAGPPESGESTDALKLCPHEEFLRLCKERAEEIYPIKERNNRTRLALIICNTEFDHLPPRNGADFDITGMKELLEGLDYSVDVEENLTARDMESALRAFATRPEHKSSDSTFLVLMSHGILEGICGTVHDEKKPDVLLYDTIFQIFNNRNCLSLKDKPKVIIVQACRGANRGELWVRDSPASLEVASSQSSENLEEDAVYKTHVEKDFIAFCSSTPHNVSWRDSTMGSIFITQLITCFQKYSWCCHLEEVFRKVQQSFETPRAKAQMPTIERLSMTRYFYLFPGN

Biological target: T1, full-length pro-IL-1H4

Protein	cleavage of pro-IL-1H4 to mature IL-1H4 (SDS polyacrylamide gel)	cleavage of pro-IL-1H4
B1	Caspase 1 at a ratio of 1:50 to 1:5 (caspase:IL-1H4, weight/weight) completely cleaved pro-IL-1H4 to release the mature IL-1H4	–
B2	–	caspase 4 also cleaved pro-IL-1H4, although not as efficiently as caspase 1
